# Test results: the supplement of paper PMC9732359
# ± gives the uncertainty stated by the source.
# Experiment: protein stability index of a GFP-peptide fusion (yeast GPS) (PSI 1-4); higher = more stable; sorted into four equal gates, so the index is relative within each strain
# Procedure, shortened: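 The protein stability index combines read frequencies across sorting gates, each weighted by its gate number and then summed. To obtain those frequencies, a pooled yeast library of GFP fusions to tiled 17-residue yeast protein peptides, on a plasmid also expressing Cherry, was grown to mid-log phase in leucine-free medium. The cells were sorted into four equal gates by GFP/Cherry ratio before plasmid amplification by PCR and Illumina sequencing.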
sequence,measurement,setting,value
ELEHLTKKSKLESTKAE [DSN1],protein stability index,doa10∆,3.37 ± 0.1
same,protein stability index,pdr5∆,3.08 ± 0.081
same,protein stability index,san1∆,3.32 ± 0.095
same,protein stability index,ubr1∆,3.13 ± 0.063
QLYESGNPVNDANLLGA [COR1],protein stability index,doa10∆,2.53 ± 0.059
same,protein stability index,pdr5∆,2.65 ± 0.057
same,protein stability index,san1∆,2.42 ± 0.069
same,protein stability index,ubr1∆,2.81 ± 0.044
VRCKDCGHRILLKARTK [RPC10],protein stability index,doa10∆,2.55 ± 0.12
same,protein stability index,pdr5∆,2.64 ± 0.11
same,protein stability index,san1∆,2.56 ± 0.1
same,protein stability index,ubr1∆,2.87 ± 0.072
SISGFKEALLGQLLKDH [ARP9],protein stability index,doa10∆,2.01 ± 0.19
same,protein stability index,pdr5∆,2.29 ± 0.092
same,protein stability index,san1∆,1.89 ± 0.08
same,protein stability index,ubr1∆,2.26 ± 0.068
YGLFLKYHKEQFIKSNF [SRB8],protein stability index,doa10∆,2.15 ± 0.067
same,protein stability index,pdr5∆,2.29 ± 0.045
same,protein stability index,san1∆,1.97 ± 0.069
same,protein stability index,ubr1∆,2.36 ± 0.054
GSAEFNVKYRAVVFKPF [RPB7],protein stability index,doa10∆,2.81 ± 0.14
same,protein stability index,pdr5∆,1.85 ± 0.11
same,protein stability index,san1∆,2.46 ± 0.1
same,protein stability index,ubr1∆,2.85 ± 0.17
IKEDIKKQPSILVGGTL [SNF2],protein stability index,doa10∆,1.93 ± 0.084
same,protein stability index,pdr5∆,2.15 ± 0.12
same,protein stability index,san1∆,2.92 ± 0.12
same,protein stability index,ubr1∆,3.27 ± 0.14
SANPKKTTITRVEPETF [SWI3],protein stability index,doa10∆,2.86 ± 0.065
same,protein stability index,pdr5∆,3.06 ± 0.068
same,protein stability index,san1∆,3.03 ± 0.052
same,protein stability index,ubr1∆,2.95 ± 0.051
QQQSADHDDSTDDADDH [NSL1],protein stability index,doa10∆,2.91 ± 0.059
same,protein stability index,pdr5∆,2.91 ± 0.064
same,protein stability index,san1∆,2.77 ± 0.057
same,protein stability index,ubr1∆,3.01 ± 0.037
VLRPFLLRRLKKDVEKE [SNF2],protein stability index,doa10∆,2.8 ± 0.13
same,protein stability index,pdr5∆,3.16 ± 0.19
same,protein stability index,ubr1∆,3.11 ± 0.12
DETYKGVEEVEGEYELT [RPL5],protein stability index,doa10∆,3.21 ± 0.16
same,protein stability index,pdr5∆,3.43 ± 0.15
same,protein stability index,san1∆,3.16 ± 0.23
same,protein stability index,ubr1∆,2.82 ± 0.27
GSCTGKFGYILCVLDYD [RPB7],protein stability index,doa10∆,2.3 ± 0.084
same,protein stability index,pdr5∆,2.54 ± 0.061
same,protein stability index,san1∆,2.38 ± 0.067
same,protein stability index,ubr1∆,2.31 ± 0.055
THNDIDSTAVALEEGLN [YJL039C/NUP192],protein stability index,doa10∆,2.78 ± 0.096
same,protein stability index,pdr5∆,3.05 ± 0.047
same,protein stability index,san1∆,2.53 ± 0.082
same,protein stability index,ubr1∆,2.56 ± 0.06
HTSSGSVSFKVFLLLQA [BRR2],protein stability index,doa10∆,1.79 ± 0.042
same,protein stability index,pdr5∆,1.84 ± 0.044
same,protein stability index,san1∆,1.5 ± 0.074
same,protein stability index,ubr1∆,1.62 ± 0.056
SDEAIIPVNKRRGAHGS [SIR3],protein stability index,doa10∆,3.03 ± 0.15
same,protein stability index,pdr5∆,3.13 ± 0.13
same,protein stability index,san1∆,3.04 ± 0.13
same,protein stability index,ubr1∆,2.93 ± 0.18
VHRITDEEASYKLGKVK [RPS4A],protein stability index,doa10∆,3.01 ± 0.087
same,protein stability index,pdr5∆,3.13 ± 0.13
same,protein stability index,san1∆,2.98 ± 0.12
same,protein stability index,ubr1∆,3.07 ± 0.12
MSMSSTVIKFRAGVCEY [RPN13],protein stability index,pdr5∆,2.58 ± 0.18
same,protein stability index,san1∆,2.22 ± 0.13
NSNPTSNVFGSNNSTTN [YJL041W/NSP1],protein stability index,doa10∆,3.23 ± 0.079
same,protein stability index,pdr5∆,3.43 ± 0.086
same,protein stability index,san1∆,3.16 ± 0.055
same,protein stability index,ubr1∆,3.46 ± 0.066
PINLHPSKLVITKLHLD [RPL26A],protein stability index,doa10∆,1.74 ± 0.058
same,protein stability index,pdr5∆,2.2 ± 0.045
same,protein stability index,san1∆,1.9 ± 0.062
same,protein stability index,ubr1∆,1.85 ± 0.042
NTGPSTGGLFGAKPAGS [YGL172W/NUP49],protein stability index,doa10∆,3.43 ± 0.12
same,protein stability index,pdr5∆,3.32 ± 0.11
same,protein stability index,san1∆,2.67 ± 0.17
YLLISKENKKRKNFKMG [IRR1],protein stability index,doa10∆,2.91 ± 0.097
same,protein stability index,pdr5∆,3.24 ± 0.14
same,protein stability index,san1∆,3.02 ± 0.06
same,protein stability index,ubr1∆,3.11 ± 0.078
SFEKLYEGMKLGNHAIT [YMR129W/POM152],protein stability index,doa10∆,2.85 ± 0.17
same,protein stability index,pdr5∆,1.47 ± 0.27
same,protein stability index,san1∆,1.85 ± 0.24
same,protein stability index,ubr1∆,2 ± 0.15
YDRQLSSLFLDGLEKAA [FAS2],protein stability index,doa10∆,2.96 ± 0.084
same,protein stability index,pdr5∆,2.93 ± 0.074
same,protein stability index,san1∆,2.79 ± 0.095
same,protein stability index,ubr1∆,2.95 ± 0.079
DKFKLNENDLKTYNCLH [SMC1],protein stability index,doa10∆,2.7 ± 0.14
same,protein stability index,pdr5∆,2.5 ± 0.12
same,protein stability index,ubr1∆,2.85 ± 0.094
EFFNTLRKSRETVKLPR [RRI2],protein stability index,pdr5∆,3.55 ± 0.18
same,protein stability index,san1∆,3.02 ± 0.15
WRFLQILRNGIDYLQRN [POP1],protein stability index,doa10∆,3.05 ± 0.059
same,protein stability index,pdr5∆,2.82 ± 0.054
same,protein stability index,san1∆,2.97 ± 0.052
same,protein stability index,ubr1∆,2.72 ± 0.048
NSGVGSAKGPEIIPLQD [MED6],protein stability index,doa10∆,3.35 ± 0.16
same,protein stability index,pdr5∆,3.21 ± 0.088
same,protein stability index,san1∆,3.16 ± 0.071
same,protein stability index,ubr1∆,3.23 ± 0.064
FELVHHFFQIDGFNKTF [YML103C/NUP188],protein stability index,doa10∆,2.03 ± 0.075
same,protein stability index,pdr5∆,2.24 ± 0.091
same,protein stability index,san1∆,2.42 ± 0.074
same,protein stability index,ubr1∆,2.36 ± 0.065
ATLSKLKKKYQIILDRF [SIR3],protein stability index,doa10∆,2.32 ± 0.065
same,protein stability index,pdr5∆,1.95 ± 0.073
same,protein stability index,san1∆,1.75 ± 0.12
same,protein stability index,ubr1∆,1.71 ± 0.061
VPNILSLDMNSMNKELI [NUT1],protein stability index,doa10∆,2.14 ± 0.075
same,protein stability index,pdr5∆,1.96 ± 0.084
same,protein stability index,san1∆,1.46 ± 0.27
same,protein stability index,ubr1∆,1.91 ± 0.075
YSTANEYIIAAIRKAPH [RPN3],protein stability index,doa10∆,2.82 ± 0.061
same,protein stability index,pdr5∆,2.64 ± 0.052
same,protein stability index,san1∆,2.62 ± 0.042
same,protein stability index,ubr1∆,2.62 ± 0.047
REHFEKTVAVDSVFEQN [RPL3],protein stability index,doa10∆,2.94 ± 0.12
same,protein stability index,pdr5∆,2.93 ± 0.18
same,protein stability index,san1∆,2.12 ± 0.12
same,protein stability index,ubr1∆,2.37 ± 0.12
SSLPPGEILLPDIADIP [SNF5],protein stability index,doa10∆,3.12 ± 0.074
same,protein stability index,pdr5∆,3.25 ± 0.063
same,protein stability index,san1∆,3.19 ± 0.076
same,protein stability index,ubr1∆,3.25 ± 0.048
ELQKIYDRHQSSSKQQS [SMC4],protein stability index,doa10∆,3.33 ± 0.084
same,protein stability index,pdr5∆,3.33 ± 0.095
same,protein stability index,san1∆,3.35 ± 0.08
same,protein stability index,ubr1∆,3.57 ± 0.051
SLKNVTEKNREIYKQLN [YIL149C/MLP2],protein stability index,doa10∆,3.31 ± 0.097
same,protein stability index,pdr5∆,2.76 ± 0.11
same,protein stability index,san1∆,3.18 ± 0.056
same,protein stability index,ubr1∆,2.99 ± 0.05
IIRLLPINLENNDGSYG [SRB8],protein stability index,doa10∆,1.7 ± 0.064
same,protein stability index,pdr5∆,1.24 ± 0.048
same,protein stability index,san1∆,1.21 ± 0.077
same,protein stability index,ubr1∆,1.39 ± 0.048
TMLITGQRPDRATTYEK [SIN4],protein stability index,doa10∆,3.06 ± 0.11
same,protein stability index,pdr5∆,3.09 ± 0.15
same,protein stability index,san1∆,3.25 ± 0.07
same,protein stability index,ubr1∆,3.22 ± 0.05
VTKLNVLVDEIKSQYYS [YIL149C/MLP2],protein stability index,doa10∆,2.36 ± 0.066
same,protein stability index,pdr5∆,2.33 ± 0.052
same,protein stability index,san1∆,2.35 ± 0.074
same,protein stability index,ubr1∆,2.28 ± 0.037
QTFEAKLHFKDTKPFLN [NUT1],protein stability index,doa10∆,2.4 ± 0.074
same,protein stability index,pdr5∆,2.87 ± 0.12
same,protein stability index,san1∆,2.62 ± 0.059
same,protein stability index,ubr1∆,2.67 ± 0.043
SAETLSELIRTTLDAEK [FAS1],protein stability index,doa10∆,2.78 ± 0.054
same,protein stability index,pdr5∆,2.73 ± 0.046
same,protein stability index,san1∆,2.84 ± 0.044
same,protein stability index,ubr1∆,2.63 ± 0.053
DKKNSSDPNNQSLNEMV [YJL039C/NUP192],protein stability index,doa10∆,3.07 ± 0.1
same,protein stability index,pdr5∆,3.24 ± 0.11
same,protein stability index,san1∆,3.16 ± 0.087
same,protein stability index,ubr1∆,3.35 ± 0.071
HDAIFSIYKYIHLNELL [SNF12],protein stability index,doa10∆,2.31 ± 0.051
same,protein stability index,pdr5∆,2.43 ± 0.046
same,protein stability index,san1∆,1.95 ± 0.074
same,protein stability index,ubr1∆,2.01 ± 0.038
LYGAPGTGKTLLAKAVA [RPT2],protein stability index,doa10∆,1.77 ± 0.11
same,protein stability index,pdr5∆,1.48 ± 0.12
same,protein stability index,ubr1∆,1.58 ± 0.1
FLKDADVECIKAKSHFT [YJL039C/NUP192],protein stability index,doa10∆,3.11 ± 0.13
same,protein stability index,pdr5∆,3.2 ± 0.14
same,protein stability index,san1∆,2.91 ± 0.089
same,protein stability index,ubr1∆,2.98 ± 0.059
GKGRFQTPAEKHAFMGT [RPL3],protein stability index,doa10∆,3.13 ± 0.17
same,protein stability index,pdr5∆,3.2 ± 0.061
same,protein stability index,san1∆,2.97 ± 0.1
same,protein stability index,ubr1∆,2.98 ± 0.093
LTMANLPSWSLGKWYSK [ARP7],protein stability index,doa10∆,3.17 ± 0.15
same,protein stability index,pdr5∆,3.28 ± 0.11
same,protein stability index,san1∆,2.88 ± 0.17
same,protein stability index,ubr1∆,2.85 ± 0.19
NSFTKGNVFSPIDNNII [SNU114],protein stability index,doa10∆,2.98 ± 0.093
same,protein stability index,pdr5∆,2.92 ± 0.074
same,protein stability index,san1∆,2.83 ± 0.081
same,protein stability index,ubr1∆,2.95 ± 0.058
LRLTRINSGTFVKVTKA [RPL7A],protein stability index,doa10∆,1.89 ± 0.1
same,protein stability index,san1∆,1.43 ± 0.28
INAVLVNDNDERAARVV [RPO31],protein stability index,doa10∆,2.88 ± 0.12
same,protein stability index,pdr5∆,3.04 ± 0.13
same,protein stability index,san1∆,2.94 ± 0.097
same,protein stability index,ubr1∆,2.56 ± 0.084
LDIINPGSVEEVDKSKL [YDL116W/NUP84],protein stability index,doa10∆,2.94 ± 0.1
same,protein stability index,pdr5∆,3.44 ± 0.11
same,protein stability index,san1∆,3.24 ± 0.13
same,protein stability index,ubr1∆,3.53 ± 0.087
FAKEKLTKKEKKEANLF [RPL6A],protein stability index,doa10∆,3.02 ± 0.072
same,protein stability index,pdr5∆,3.08 ± 0.08
same,protein stability index,san1∆,3.19 ± 0.073
same,protein stability index,ubr1∆,3.14 ± 0.05
EFVNGGKVVKNVLLLDS [RRP46],protein stability index,doa10∆,2.42 ± 0.17
same,protein stability index,pdr5∆,2.02 ± 0.069
same,protein stability index,san1∆,1.34 ± 0.2
same,protein stability index,ubr1∆,1.9 ± 0.11
LKNFLSYESLKKRKIHN [MCD1],protein stability index,doa10∆,1.55 ± 0.038
same,protein stability index,pdr5∆,1.46 ± 0.039
same,protein stability index,san1∆,2.12 ± 0.048
same,protein stability index,ubr1∆,1.59 ± 0.034
SRTATWLKNKFAEENIT [BRR2],protein stability index,doa10∆,1.69 ± 0.052
same,protein stability index,pdr5∆,1.73 ± 0.037
same,protein stability index,san1∆,2.23 ± 0.064
same,protein stability index,ubr1∆,1.94 ± 0.053
